{"source": "patent US20160304570A1", "experiment_in_all_cases": "cell-based or functional assay", "key": {"[1]": {"molecular_target": "human voltage-gated sodium channel Nav1.7 (human) (UniProt Q15858)", "sequence (Q15858 whole entry)": "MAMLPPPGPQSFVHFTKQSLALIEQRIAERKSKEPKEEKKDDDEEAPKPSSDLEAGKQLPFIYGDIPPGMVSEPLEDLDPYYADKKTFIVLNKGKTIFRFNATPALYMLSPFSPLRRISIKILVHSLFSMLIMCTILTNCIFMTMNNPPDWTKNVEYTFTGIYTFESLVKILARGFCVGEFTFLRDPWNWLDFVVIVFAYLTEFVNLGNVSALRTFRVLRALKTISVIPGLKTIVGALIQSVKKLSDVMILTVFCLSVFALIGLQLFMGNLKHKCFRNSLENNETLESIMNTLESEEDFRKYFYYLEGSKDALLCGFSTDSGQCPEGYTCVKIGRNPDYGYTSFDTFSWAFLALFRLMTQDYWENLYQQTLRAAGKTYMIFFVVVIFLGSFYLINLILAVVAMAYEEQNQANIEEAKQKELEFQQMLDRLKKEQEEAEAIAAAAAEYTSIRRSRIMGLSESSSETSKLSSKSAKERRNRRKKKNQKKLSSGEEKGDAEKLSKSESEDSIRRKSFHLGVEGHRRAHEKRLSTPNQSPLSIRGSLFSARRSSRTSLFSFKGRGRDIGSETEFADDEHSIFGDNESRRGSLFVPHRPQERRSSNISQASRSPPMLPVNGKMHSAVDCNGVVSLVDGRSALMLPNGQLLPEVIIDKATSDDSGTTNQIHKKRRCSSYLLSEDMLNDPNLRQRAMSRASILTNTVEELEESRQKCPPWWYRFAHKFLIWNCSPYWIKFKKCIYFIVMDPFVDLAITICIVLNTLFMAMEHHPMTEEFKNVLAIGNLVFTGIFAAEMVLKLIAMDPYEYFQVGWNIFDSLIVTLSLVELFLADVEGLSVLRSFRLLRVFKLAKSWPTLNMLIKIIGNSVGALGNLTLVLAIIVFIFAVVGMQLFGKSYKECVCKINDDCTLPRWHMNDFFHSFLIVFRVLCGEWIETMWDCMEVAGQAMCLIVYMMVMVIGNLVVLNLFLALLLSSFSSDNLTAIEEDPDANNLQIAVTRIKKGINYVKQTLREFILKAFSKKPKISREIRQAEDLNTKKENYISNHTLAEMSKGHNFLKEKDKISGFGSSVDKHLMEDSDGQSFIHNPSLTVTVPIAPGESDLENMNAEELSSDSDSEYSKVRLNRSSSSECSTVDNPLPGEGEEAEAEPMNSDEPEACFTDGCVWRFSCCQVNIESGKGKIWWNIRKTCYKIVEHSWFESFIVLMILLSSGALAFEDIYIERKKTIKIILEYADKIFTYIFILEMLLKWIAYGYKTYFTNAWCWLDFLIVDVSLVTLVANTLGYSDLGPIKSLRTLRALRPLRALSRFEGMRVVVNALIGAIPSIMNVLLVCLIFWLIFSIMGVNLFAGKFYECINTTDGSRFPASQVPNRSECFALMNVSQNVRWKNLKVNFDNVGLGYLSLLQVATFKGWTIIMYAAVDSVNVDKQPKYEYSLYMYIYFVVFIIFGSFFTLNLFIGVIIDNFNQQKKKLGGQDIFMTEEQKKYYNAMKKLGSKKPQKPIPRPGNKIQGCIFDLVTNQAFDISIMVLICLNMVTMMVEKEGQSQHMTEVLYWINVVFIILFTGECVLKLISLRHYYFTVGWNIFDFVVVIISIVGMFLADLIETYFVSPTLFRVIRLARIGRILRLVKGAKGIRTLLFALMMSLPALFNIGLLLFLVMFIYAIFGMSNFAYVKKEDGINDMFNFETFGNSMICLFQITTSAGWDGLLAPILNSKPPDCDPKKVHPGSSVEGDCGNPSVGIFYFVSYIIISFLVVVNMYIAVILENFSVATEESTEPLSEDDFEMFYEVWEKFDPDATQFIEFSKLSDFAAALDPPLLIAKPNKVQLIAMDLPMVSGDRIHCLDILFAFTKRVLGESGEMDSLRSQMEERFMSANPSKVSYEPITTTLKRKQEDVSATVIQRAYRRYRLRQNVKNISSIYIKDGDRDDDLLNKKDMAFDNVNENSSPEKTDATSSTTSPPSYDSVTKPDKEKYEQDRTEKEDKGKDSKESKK"}, "[2]": {"molecular_target": "human voltage-gated sodium channel Nav1.5 (human) (UniProt Q14524)"}, "[3]": {"molecular_target": "human Nav1.5 voltage-gated sodium channel (human) (UniProt Q14524)"}, "[4]": {"molecular_target": "human Nav1.3 voltage-gated sodium channel (human) (UniProt Q9NY46)"}, "[5]": {"molecular_target": "human Nav1.7 voltage-gated sodium channel (human) (UniProt Q15858)", "sequence (Q15858 whole entry)": "as above"}, "[6]": {"molecular_target": "human voltage-gated sodium channel Nav1.7 (human) (UniProt Q15858)", "remark": "listed apart in the source"}, "[7]": {"molecular_target": "human voltage-gated sodium channel Nav1.3 (human) (UniProt Q9NY46)"}, "[8]": {"molecular_target": "human voltage-gated sodium channel Nav1.5 (human) (UniProt Q14524)", "remark": "listed apart in the source"}, "[9]": {"molecular_target": "human voltage-gated sodium channel Nav1.4 (human) (UniProt P35499)", "sequence (P35499 whole entry)": "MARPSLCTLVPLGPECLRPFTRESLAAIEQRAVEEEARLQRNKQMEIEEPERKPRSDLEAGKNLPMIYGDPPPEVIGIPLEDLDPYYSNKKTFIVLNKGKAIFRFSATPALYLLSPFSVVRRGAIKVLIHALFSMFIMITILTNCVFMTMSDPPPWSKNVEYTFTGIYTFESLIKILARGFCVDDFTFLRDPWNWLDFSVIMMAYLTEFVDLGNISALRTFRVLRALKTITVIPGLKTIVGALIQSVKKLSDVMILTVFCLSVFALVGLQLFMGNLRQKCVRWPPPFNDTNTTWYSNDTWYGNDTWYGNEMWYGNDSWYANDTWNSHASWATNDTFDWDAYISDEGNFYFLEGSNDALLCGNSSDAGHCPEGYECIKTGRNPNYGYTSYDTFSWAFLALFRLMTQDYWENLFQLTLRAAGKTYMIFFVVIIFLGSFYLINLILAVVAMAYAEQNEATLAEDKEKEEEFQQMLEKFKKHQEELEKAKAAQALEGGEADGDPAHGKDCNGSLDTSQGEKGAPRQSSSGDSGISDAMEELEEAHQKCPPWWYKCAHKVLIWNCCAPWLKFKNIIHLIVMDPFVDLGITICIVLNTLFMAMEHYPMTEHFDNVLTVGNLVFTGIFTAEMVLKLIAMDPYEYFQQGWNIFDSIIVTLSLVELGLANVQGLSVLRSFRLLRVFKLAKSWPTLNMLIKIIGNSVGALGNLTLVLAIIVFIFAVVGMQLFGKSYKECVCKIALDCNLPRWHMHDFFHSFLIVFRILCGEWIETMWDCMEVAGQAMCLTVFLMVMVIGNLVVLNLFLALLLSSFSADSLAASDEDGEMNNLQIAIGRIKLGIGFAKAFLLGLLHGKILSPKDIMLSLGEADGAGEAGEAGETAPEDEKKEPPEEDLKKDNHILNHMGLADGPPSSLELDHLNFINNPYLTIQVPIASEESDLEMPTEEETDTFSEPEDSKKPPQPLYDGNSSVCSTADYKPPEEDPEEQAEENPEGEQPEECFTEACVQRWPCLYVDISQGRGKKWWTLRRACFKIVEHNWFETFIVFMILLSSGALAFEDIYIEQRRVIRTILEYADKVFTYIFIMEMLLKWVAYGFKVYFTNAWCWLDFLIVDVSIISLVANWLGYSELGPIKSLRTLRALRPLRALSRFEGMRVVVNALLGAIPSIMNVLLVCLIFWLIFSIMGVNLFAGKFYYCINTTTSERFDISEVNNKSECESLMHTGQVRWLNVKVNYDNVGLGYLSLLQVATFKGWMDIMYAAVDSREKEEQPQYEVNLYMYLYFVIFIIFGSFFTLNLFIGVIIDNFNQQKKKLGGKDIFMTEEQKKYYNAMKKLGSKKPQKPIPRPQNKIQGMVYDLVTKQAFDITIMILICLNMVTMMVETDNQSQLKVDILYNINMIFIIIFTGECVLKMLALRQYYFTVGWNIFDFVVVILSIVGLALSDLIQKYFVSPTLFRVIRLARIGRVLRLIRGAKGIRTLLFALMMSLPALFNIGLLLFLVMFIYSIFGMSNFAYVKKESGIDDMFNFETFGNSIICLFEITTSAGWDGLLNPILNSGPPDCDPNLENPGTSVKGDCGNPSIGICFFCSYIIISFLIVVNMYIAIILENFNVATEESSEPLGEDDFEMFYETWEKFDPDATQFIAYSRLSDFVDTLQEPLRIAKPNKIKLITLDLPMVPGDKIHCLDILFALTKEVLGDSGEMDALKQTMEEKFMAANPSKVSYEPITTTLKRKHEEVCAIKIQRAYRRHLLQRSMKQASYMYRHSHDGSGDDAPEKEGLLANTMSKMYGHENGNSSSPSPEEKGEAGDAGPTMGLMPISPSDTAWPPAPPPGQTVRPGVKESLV"}}}
{"substance": "4-Pen-[2-Abu5,13;Leu6;Arg28]GpTx-1(1-34) (peptide)", "values": [{"measurement": "Nav1.7 Use IC50 (µM), electrophysiology by PatchXpress", "setting": "[1]", "result": 0.003, "unit": "µM"}, {"measurement": "Nav1.5 Use IC50 (µM), electrophysiology by PatchXpress", "setting": "[2]", "result": "> 10", "unit": "µM"}, {"measurement": "IWQ Use Nav1.5 IC50 (IonWorks Quattro electrophysiology)", "setting": "[3]", "result": 36.8, "unit": "µM"}, {"measurement": "IWQ Use Nav1.3 IC50 (IonWorks Quattro electrophysiology)", "setting": "[4]", "result": 0.9, "unit": "µM"}, {"measurement": "IWQ Use Nav1.7 IC50 (IonWorks Quattro electrophysiology)", "setting": "[5]", "result": 0.54, "unit": "µM"}]}
{"substance": "4-Pen-[Ala5;Phe6;2-Abu13;Arg28]GpTx-1(1-34) (peptide)", "values": [{"measurement": "Nav1.7 Use IC50 (µM), electrophysiology by PatchXpress", "setting": "[1]", "result": 0.004, "unit": "µM"}, {"measurement": "Nav1.5 Use IC50 (µM), electrophysiology by PatchXpress", "setting": "[2]", "result": "> 10", "unit": "µM"}, {"measurement": "IWQ Use Nav1.7 IC50 (IonWorks Quattro electrophysiology)", "setting": "[6]", "result": 0.18, "unit": "µM"}, {"measurement": "IWQ Use Nav1.3 IC50 (IonWorks Quattro electrophysiology)", "setting": "[7]", "result": 0.26, "unit": "µM"}, {"measurement": "IWQ Use Nav1.5 IC50 (IonWorks Quattro electrophysiology)", "setting": "[8]", "result": 44.4, "unit": "µM"}]}
{"substance": "4-Pen-[Nva5;Leu6;2-Abu13;Arg28]GpTx-1(1-34) (peptide)", "values": [{"measurement": "IWQ Use Nav1.7 IC50 (IonWorks Quattro electrophysiology)", "setting": "[6]", "result": 0.1, "unit": "µM"}, {"measurement": "IWQ Use Nav1.3 IC50 (IonWorks Quattro electrophysiology)", "setting": "[7]", "result": 0.23, "unit": "µM"}, {"measurement": "IWQ Use Nav1.5 IC50 (IonWorks Quattro electrophysiology)", "setting": "[8]", "result": 46.2, "unit": "µM"}]}
{"substance": "((2-Hydroxyethyl)thio)acetamide-NPEG11-triazole-[2-Abu5,13;Leu6;Arg28]GpTx-1(1-34) (peptide)", "values": [{"measurement": "Nav1.7 Use IC50 (PatchXpress electrophysiology, inhibition of sodium current)", "setting": "[1]", "result": 0.087, "unit": "µM"}, {"measurement": "Nav1.4 Use IC50 (PatchXpress electrophysiology, inhibition of sodium current)", "setting": "[9]", "result": "> 10", "unit": "µM"}, {"measurement": "Nav1.5 Use IC50 (PatchXpress electrophysiology, inhibition of sodium current)", "setting": "[2]", "result": "> 10", "unit": "µM"}]}
{"substance": "Biotin-Ahx-[2-Abu5,13;Leu6;Arg28]GpTx-1(1-34) (peptide)", "values": [{"measurement": "Nav1.7 Use IC50 (µM), PatchXpress electrophysiology", "setting": "[1]", "result": 0.011, "unit": "µM"}, {"measurement": "Nav1.4 Use IC50 (µM), PatchXpress electrophysiology", "setting": "[9]", "result": 27.3, "unit": "µM"}, {"measurement": "Nav1.5 Use IC50 (µM), PatchXpress electrophysiology", "setting": "[2]", "result": "> 10", "unit": "µM"}]}
{"substance": "[2-Abu5,Leu6,K(ethyl-triazole-PEG11-((2-hydroxyethyl)thio)acetamide)13,Arg28]GpTx-1(1-34) (peptide)", "values": [{"measurement": "Nav1.7 Use IC50 (PatchXpress electrophysiology, inhibition of sodium current)", "setting": "[1]", "result": 0.018, "unit": "µM"}, {"measurement": "Nav1.4 Use IC50 (PatchXpress electrophysiology, inhibition of sodium current)", "setting": "[9]", "result": 9.88, "unit": "µM"}, {"measurement": "Nav1.5 Use IC50 (PatchXpress electrophysiology, inhibition of sodium current)", "setting": "[2]", "result": "> 10", "unit": "µM"}]}
{"substance": "[2-Abu5;Leu6;K(4-Pen)13;Arg28]GpTx-1(1-34) (peptide)", "values": [{"measurement": "Nav1.7 Use IC50 (µM), electrophysiology by PatchXpress", "setting": "[1]", "result": 0.002, "unit": "µM"}, {"measurement": "Nav1.5 Use IC50 (µM), electrophysiology by PatchXpress", "setting": "[2]", "result": "> 10", "unit": "µM"}, {"measurement": "IWQ Use Nav1.5 IC50 (IonWorks Quattro electrophysiology)", "setting": "[3]", "result": 39.7, "unit": "µM"}, {"measurement": "IWQ Use Nav1.3 IC50 (IonWorks Quattro electrophysiology)", "setting": "[4]", "result": 0.81, "unit": "µM"}, {"measurement": "IWQ Use Nav1.7 IC50 (IonWorks Quattro electrophysiology)", "setting": "[5]", "result": 0.55, "unit": "µM"}]}
{"substance": "[Ala5;Leu6,26;Pra12;Arg28]GpTx-1(1-34) (peptide)", "values": [{"measurement": "IWQ Use Nav1.5 IC50 (IonWorks Quattro electrophysiology)", "setting": "[3]", "result": "> 50", "unit": "µM"}, {"measurement": "IWQ Use Nav1.3 IC50 (IonWorks Quattro electrophysiology)", "setting": "[4]", "result": 0.54, "unit": "µM"}, {"measurement": "IWQ Use Nav1.7 IC50 (IonWorks Quattro electrophysiology)", "setting": "[5]", "result": 0.26, "unit": "µM"}]}
{"substance": "[Ala5;Leu6,26;Pra13;Arg28]GpTx-1(1-34) (peptide)", "values": [{"measurement": "Nav1.7 Use IC50 (µM), electrophysiology by PatchXpress", "setting": "[1]", "result": 0.009, "unit": "µM"}, {"measurement": "Nav1.5 Use IC50 (µM), electrophysiology by PatchXpress", "setting": "[2]", "result": "> 10", "unit": "µM"}, {"measurement": "IWQ Use Nav1.5 IC50 (IonWorks Quattro electrophysiology)", "setting": "[3]", "result": 36.4, "unit": "µM"}, {"measurement": "IWQ Use Nav1.3 IC50 (IonWorks Quattro electrophysiology)", "setting": "[4]", "result": 0.48, "unit": "µM"}, {"measurement": "IWQ Use Nav1.7 IC50 (IonWorks Quattro electrophysiology)", "setting": "[5]", "result": 0.22, "unit": "µM"}]}
{"substance": "[Ala5;Phe6,13;Arg28]GpTx-1(1-34)-FreeAcid (peptide)", "values": [{"measurement": "IWQ Use Nav1.3 IC50", "setting": "[7]", "result": 1200, "unit": "nM"}]}
{"substance": "[Ala5;Phe6;Arg13,28]GpTx-1(1-34)-FreeAcid (peptide)", "values": [{"measurement": "IWQ Use Nav1.7 IC50", "setting": "[6]", "result": 4500, "unit": "nM"}, {"measurement": "IWQ Use Nav1.3 IC50", "setting": "[7]", "result": 600, "unit": "nM"}]}
{"substance": "[Ala5;Phe6;Asp13;Arg28]GpTx-1(1-34)-FreeAcid (peptide)", "values": [{"measurement": "IWQ Use Nav1.3 IC50", "setting": "[7]", "result": 2300, "unit": "nM"}]}
{"substance": "[Ala5;Phe6;Gln13;Arg28]GpTx-1(1-34)-FreeAcid (peptide)", "values": [{"measurement": "IWQ Use Nav1.3 IC50", "setting": "[7]", "result": 1700, "unit": "nM"}]}
{"substance": "[Ala5;Phe6;Glu10;Atz(PEG3-((2-hydroxyethyl)thio)acetamide)13;Leu26;Arg28]GpTx-1(1-34) (peptide)", "values": [{"measurement": "Nav1.7 Use IC50 (PatchXpress electrophysiology, inhibition of sodium current)", "setting": "[1]", "result": 0.013, "unit": "µM"}, {"measurement": "Nav1.4 Use IC50 (PatchXpress electrophysiology, inhibition of sodium current)", "setting": "[9]", "result": 5.95, "unit": "µM"}, {"measurement": "Nav1.5 Use IC50 (PatchXpress electrophysiology, inhibition of sodium current)", "setting": "[2]", "result": "> 10", "unit": "µM"}]}
{"substance": "[Ala5;Phe6;Glu10;Atz(PEG11-((2-hydroxyethyl)thio)acetamide)13;Leu26;Arg28]GpTx-1(1-34) (peptide)", "values": [{"measurement": "Nav1.7 Use IC50 (PatchXpress electrophysiology, inhibition of sodium current)", "setting": "[1]", "result": 0.021, "unit": "µM"}, {"measurement": "Nav1.4 Use IC50 (PatchXpress electrophysiology, inhibition of sodium current)", "setting": "[9]", "result": "> 10", "unit": "µM"}, {"measurement": "Nav1.5 Use IC50 (PatchXpress electrophysiology, inhibition of sodium current)", "setting": "[2]", "result": "> 10", "unit": "µM"}]}
{"substance": "[Ala5;Phe6;Glu10;K(Biotin)13;Leu26;Arg28]GpTx-1(1-34) (peptide)", "values": [{"measurement": "Nav1.7 Use IC50 (µM), PatchXpress electrophysiology", "setting": "[1]", "result": 0.015, "unit": "µM"}, {"measurement": "Nav1.4 Use IC50 (µM), PatchXpress electrophysiology", "setting": "[9]", "result": 7.13, "unit": "µM"}, {"measurement": "Nav1.5 Use IC50 (µM), PatchXpress electrophysiology", "setting": "[2]", "result": "> 10", "unit": "µM"}]}
{"substance": "[Ala5;Phe6;Glu10;Pra13;Leu26;Arg28]GpTx-1(1-34) (peptide)", "values": [{"measurement": "Nav1.7 Use IC50 (µM), electrophysiology by PatchXpress", "setting": "[1]", "result": 0.012, "unit": "µM"}, {"measurement": "Nav1.5 Use IC50 (µM), electrophysiology by PatchXpress", "setting": "[2]", "result": 15.3, "unit": "µM"}, {"measurement": "IWQ Use Nav1.5 IC50 (IonWorks Quattro electrophysiology)", "setting": "[3]", "result": 32.2, "unit": "µM"}, {"measurement": "IWQ Use Nav1.3 IC50 (IonWorks Quattro electrophysiology)", "setting": "[4]", "result": 0.56, "unit": "µM"}, {"measurement": "IWQ Use Nav1.7 IC50 (IonWorks Quattro electrophysiology)", "setting": "[5]", "result": 0.54, "unit": "µM"}]}
{"substance": "[Ala5;Phe6;Glu13;Arg28]GpTx-1(1-34)-FreeAcid (peptide)", "values": [{"measurement": "IWQ Use Nav1.3 IC50", "setting": "[7]", "result": 1900, "unit": "nM"}]}
{"substance": "[Ala5;Phe6;Gly13;Arg28]GpTx-1(1-34)-FreeAcid (peptide)", "values": [{"measurement": "IWQ Use Nav1.3 IC50", "setting": "[7]", "result": 1500, "unit": "nM"}]}
